The values that follow come from US20260209311A1 (published 2026).

The assay deals with GPR75-GFP10-11 modified protein complex (UniProt O95800 1-395; P42212 3-196 = GFP). Nature of the assay: SPR; steady state affinity. A general note: Surface plasmon resonance follows binding to a sensor surface in real time, without labels.

B1: CCL5 ligand (ligand)
chain: SPYSSDTTPCCFAYIARPLPRAHIKEYFYTSGKCSNPAVVFVTRKNRQVCANPEKKWVREYINSLEMS
In general, Kd refers to the equilibrium constant for the complex coming apart. Low values mean tighter binding, high ones weaker binding. The molecule B1 had a Kd of 0.388 nM.
